The source of these data is publication PMC13067816, “Alphaviral Capsid Proteins Inhibit Stress Granule Assembly via Competitive RNA Binding With G3BP1”.

First the molecules themselves.
B1: FAM-SFV gRNA probe1 (ssRNA)
RNA: GGUUGACGGGUCGGAUAGUUGCUU
B2: FAM-AHNAK probe (ssRNA)
RNA: AUGCAAAGGGCUUGGACUUGGGUGGCAGAG
B3: FAM-SFV gRNA probe2 (ssRNA)
RNA: GCGUCGUGUGAGCCCCCGAAAGACCACAUA
B4: FAM-GAPDH probe (ssRNA)
RNA: UUUGUCAAGCUCAUUUCCUGGUAUGACAAC

The target in the data set is SFV capsid (nucleocapsid N) (Semliki Forest virus (SFV4, …, UniProt P03315 1-267)). The data set is described as follows: fluorescence polarization; 20 nM probe, 0-8000 nM protein; FP: 50 mM Tris-HCl pH 7.4, 150 mM NaCl, 20 nM FAM-RNA, 15 min, room temperature. (In general: Fluorescence polarisation rises when a labelled molecule tumbles more slowly, as on binding a larger partner.)
With B1, the binding result is “binds”.

Take B2: the binding result was “binds”.

As for B3, the binding result is “binds”. Then B4, with “binds”.
